Experimental data published in publication PMC11929908 (Nature Communications, 2025).

Tests used:
[1] = target: PsiD R135A/Q136A (Psilocybe cubensis) (UniProt P0DPA6); assay: SEC
crystal structure [2] = target: the molecule itself; assay: crystal structure
crystal structure [3] = target: the molecule itself; assay: crystal structure; remark: listed apart in the source
SEC = target: the molecule itself; assay: SEC

Molecule: PsiD R135A/Q136A (from UniProt P0DPA6 1-402) (enzyme)
- stoichiometry N [1]: 2

B1: L-tryptophan decarboxylase PsiD, full-length (1–439), wildtype, self-cleaved mature enzyme (enzyme, Psilocybe cubensis)
chain 1: MQVIPACNSAAIRSLCPTPESLRNMGWLSVSDAVYSEFIGELATRASNRNYSNEFGLMQPIQEFKAFIESDPVVHQEFIDMFEGIQDSPRNYQELCNMFNDIFRKAPVYGDLGPPVYMIMAKLMNTRAGFSAFTRQRLNLHFKKLFDTWGLFLSSKDSRNVLVADQFDDRHCGWLNERALSAMVKHYNGRAFDEVFLCDKNAPYYGFNSYDDFFNRRFRNRDIDRPVVGGVNNTTLISAACESLSYNVSYDVQSLDTLVFKGETYSLKHLLNNDPFTPQFEHGSILQGFLNVTAYHRWHAPVNGTIVKIINVPGTYFAQAPSTIGDPIPDNDYDPPPYLKSLVYFSNIAARQIMFIEADNKEIGLIFLVFIGMTEISTCEATVSEGQHVNRGDDLGMFHFGG
chain 2: SSFALGLRKDCRAEIVEKFTEPGTVIRINEVVAALKA
modifications: pyruvoyl prosthetic group at 403 (Pvl403, formed from Ser403)
- stoichiometry N (crystal structure [2]): 2

B2: PsiD (50–439), self-cleaved, co-crystallised with L-tryptophan (domain or fragment, Psilocybe cubensis)
chain 1: NYSNEFGLMQPIQEFKAFIESDPVVHQEFIDMFEGIQDSPRNYQELCNMFNDIFRKAPVYGDLGPPVYMIMAKLMNTRAGFSAFTRQRLNLHFKKLFDTWGLFLSSKDSRNVLVADQFDDRHCGWLNERALSAMVKHYNGRAFDEVFLCDKNAPYYGFNSYDDFFNRRFRNRDIDRPVVGGVNNTTLISAACESLSYNVSYDVQSLDTLVFKGETYSLKHLLNNDPFTPQFEHGSILQGFLNVTAYHRWHAPVNGTIVKIINVPGTYFAQAPSTIGDPIPDNDYDPPPYLKSLVYFSNIAARQIMFIEADNKEIGLIFLVFIGMTEISTCEATVSEGQHVNRGDDLGMFHFGG
chain 2: B1 chain 2
modifications: pyruvoyl prosthetic group at 403 (Pvl403, formed from Ser403)
- stoichiometry N (crystal structure [3]): 2

B3: PsiD (1–439) S403A (enzyme, Psilocybe cubensis, UniProt P0DPA6 1-439, looked up)
chain: MQVIPACNSAAIRSLCPTPESLRNMGWLSVSDAVYSEFIGELATRASNRNYSNEFGLMQPIQEFKAFIESDPVVHQEFIDMFEGIQDSPRNYQELCNMFNDIFRKAPVYGDLGPPVYMIMAKLMNTRAGFSAFTRQRLNLHFKKLFDTWGLFLSSKDSRNVLVADQFDDRHCGWLNERALSAMVKHYNGRAFDEVFLCDKNAPYYGFNSYDDFFNRRFRNRDIDRPVVGGVNNTTLISAACESLSYNVSYDVQSLDTLVFKGETYSLKHLLNNDPFTPQFEHGSILQGFLNVTAYHRWHAPVNGTIVKIINVPGTYFAQAPSTIGDPIPDNDYDPPPYLKSLVYFSNIAARQIMFIEADNKEIGLIFLVFIGMTEISTCEATVSEGQHVNRGDDLGMFHFGGASFALGLRKDCRAEIVEKFTEPGTVIRINEVVAALKA
- stoichiometry N (SEC): 2
